Assay results taken from US8563520B2, “Treatment of ocular disease with inhibitors of alpha2 macroglobulin protein” (McGill University, priority 2005, dated 2013).
Like-named read-outs stand apart in the source and are kept apart here.

Tested on: Rat Retina
Experimental: The following experiment was conducted in order to assess changes in gene expression induced in the retina after intraocular injection of α2 macroglobulin protein. 2 μg of α2 macroglobulin protein was intraocularly injected into the right eye of rats (n=3) and the left eye was used as a control. One rat was tested at Day 3, one rat was tested at Day 7 and one rat was tested at Day 14. Retinas were isolated and mRNA was collected. Samples from each of the rats were studied by gene microassays. Retinas were carefully dissected out to insure that only retinal mRNAs were prepared for gene microarray studies. Samples were obtained from control eyes.
Total RNA was isolated from retinal tissue using TRIZOL® (Life Technologies). RNA was then further purified using the RNAEASY® (QIAGEN®). The integrity of the RNA samples was assessed by running aliquots on RNA 6000 Nano LabChip (Agilent) using the 2100 bioanalyzer (Agilent).
Probe synthesis, hybridization and scanning were done according to Affymetrix protocol, as a service at the McGill University and Genome Quebec Innovation Centre. For the experiments shown, Rat U34 Genome Arrays (8,700 genes, Affymetrix) were used. Briefly, RNA samples were first converted to double stranded cDNA (T7-(dT)24 primer (Genset)). Then the cDNAs were purified and used to generate the biotinylated cRNA probes (Bioarray High Yield RNA transcript labeling kit (Enzo diagnostics)). An aliquot of the purified cRNA was analyzed on RNA 6000 Nano LabChip (Agilent) to verify the integrity and size distribution. Immediately after hybridization the chip was placed in the Affymetrix GeneChip Fluidics Station 400 (Affymetrix). In total, 10 low-stringency washes (63 SSPE, 0.01% Tween-20, 0.005% Antifoam) and 4 high-stringency washes (100 mM MES, 0.1 M NaCl, 0.01% Tween-20, 50 C) were performed (all reagents from Sigma). The array was then incubated with SAPE® (streptavidin/phycoerythrin stain, Molecular Probes), followed by 10 low stringency washes. The array was incubated with biotinylated anti-streptavidin antibody (Vector Laboratories) and washed again with 15 low stringency washes. Specifically bound probe was detected by placing the array in the Agilent GeneArray scanner 2500 (Affymetrix). The scanned images were analyzed using the Microarray Analysis Suite version 5.0 (Affymetrix).
The fold change was analyzed by […] data for the control eye from the data on the eye injected with α2 macroglobulin. A fold change of 2 or greater indicates upregulation. A fold of 0.5 to 2 indicates no change. A fold change of 0.5 or less indicates downregulation.

[1] = gene ADP-ribosylation factor guanine nucleotide-exchange factor 1 (1392282_at)
[2] = gene Bone morphogenetic protein receptor, type 1A (1390398_at)
[3] = gene CDNA clone IMAGE: 7321089 (1389986_at)
[4] = gene CREB binding protein (1385852_at)
[5] = gene Ewing sarcoma breakpoint region 1 (1378518_at)
[6] = gene Exosome component 8 (predicted) (1386936_at)
[7] = gene FERM domain containing 4B (1384681_at)
[8] = gene Fc receptor, IgG, low affinity IIb (1371079_at)
[9] = gene High density lipoprotein binding protein (1375309_at)
[10] = gene RT1 class II, locus Ba (1370822_at)
[11] = gene RT1 class II, locus Bb (1371033_at)
[12] = gene RT1 class II, locus Da (1370883_at)
[13] = gene RT1 class II, locus Db1 (1370383_s_at)
[14] = gene S100 calcium binding protein A11 (calizzarin) (1375170_at)
[15] = gene Similar to CG10084-PA (1394756_at)
[16] = gene Similar to NICE-3 (1397412_at)
[17] = gene Similar to expressed sequence AV312086 (predicted) (1390657_at)
[18] = gene Similar to hypothetical protein D630010C10 (1385108_at)
[19] = gene Thyroid hormone receptor interactor 12 (1380803_at)
[20] = gene Transcribed locus (1381100_at)
[21] = gene Transcribed locus (1382211_at)
[22] = gene Transcribed locus (1382368_at)
[23] = gene Transcribed locus (1382510_at)
[24] = gene Transcribed locus (1384014_at)
[25] = gene Transcribed locus (1385552_at)
[26] = gene Transcribed locus (1391757_at)
[27] = gene Transcribed locus (1392155_at)
[28] = gene Transcribed locus (1392675_at)
[29] = gene Transcribed locus (1395390_at)
[30] = gene Transcribed locus (1397883_at)
[31] = gene actin related protein 2/3 complex, subunit 1B (1386925_at)
[32] = gene argininosuccinate synthetase (1370964_at)
[33] = gene ash1 (absent, small, or homeotic)-like (Drosophila) (predicted) (1382862_at)
[34] = gene cold inducible RNA binding protein (1382809_at)
[35] = gene complement component 1, s subcomponent (1387893_at)
[36] = gene complement component 3 (1368000_at)
[37] = gene complement component 4a (1370892_at)

B1: α2m: α2 macroglobulin protein injected intraocularly into normal rat eyes (protein, UniProt P06238 28-1472, looked up)
Alpha-2-macroglobulin: SAPQKPIYMVMVPSLLHAGTPEKACFLFSHLNETVAVRVSLESVRGNQSLFTDLVVDKDLFHCTSFTVPQSSSDEVMFFTVQVKGATHEFRRRSTVLVKKKESLVFAQTDKPIYKPGQTVRFRVVSLDESFHPLNELIPLLYIQDPKNNRIAQWQNFNLEGGLKQLSFPLSSEPTQGSYKVVIRTESGRTVEHPFSVEEFVLPKFEVRVTVPETITILEEEMNVSVCGIYTYGKPVPGRVTVNICRKYSNPSNCFGEESVAFCEKLSQQLDGRGCFSQLVKTKSFQLKRQEYEMQLDVHAKIQEEGTGVEETGKGLTKITRTITKLSFVNVDSHFRQGIPFVGQVLLVDGRGTPIPYETIFIGADEANLYINTTTDKHGLARFSINTDDIMGTSLTVRAKYKDSNACYGFRWLTEENVEAWHTAYAVFSPSRSFLHLESLPDKLRCDQTLEVQAHYILNGEAMQELKELVFYYLMMAKGGIVRAGTHVLPLKQGQMRGHFSILISMETDLAPVARLVLYAILPNGEVVGDTAKYEIENCLANKVDLVFRPNSGLPATRALLSVMASPQSLCGLRAVDQSVLLMKPETELSASLIYDLLPVKDLTGFPQGADQREEDTNGCVKQNDTYINGILYSPVQNTNEEDMYGFLKDMGLKVFTNSNIRKPKVCERLRDNKGIPAAYHLVSQSHMDAFLESSESPTETRRSYFPETWIWDLVVVDSAGVAEVEVTVPDTITEWKAGAFCLSNDTGLGLSPVVQFQAFQPFFVELTMPYSVIRGEAFTLKATVLNYLPTCIRVAVQLEASPDFLAAPEEKEQRSHCICMNQRHTASWAVIPKSLGNVNFTVSAEALNSKELCGNEVPVVPEQGKKDTIIKSLLVEPEGLENEVTFNSLLCPMGAEVSELIALKLPSDVVEESARASVTVLGDILGSAMQNTQDLLKMPYGCGEQNMVLFAPNIYVLDYLNETQQLTQEIKTKAIAYLNTGYQRQLNYKHRDGSYSTFGDKPGRNHANTWLTAFVLKSFAQARKYIFIDEVHITQALLWLSQQQKDNGCFRSSGSLLNNAMKGGVEDEVTLSAYITIALLEMSLPVTHPVVRNALFCLDTAWKSARGGAGGSHVYTKALLAYAFALAGNQDTKKEILKSLDEEAVKEEDSVHWTRPQKPSVSVALWYQPQAPSAEVEMTAYVLLAYLTTEPAPTQEDLTAAMLIVKWLTKQQNSHGGFSSTQDTVVALHALSKYGSATFTRAKKAAQVTIHSSGTFSTKFQVNNNNQLLLQRVTLPTVPGDYTVKVTGEGCVYLQTSLKYSVLPREEEFPFTVVVQTLPGTCEDPKAHTSFQISLNISYTGSRSESNMAIADVKMVSGFIPLKPTVKMLERSVHVSRTEVSNNHVLIYLDKVSNQTVNLSFTVQQDIPIRDLKPAVVKVYDYYEKDEFAVAKYSAPCSTDYGNA
Fold Change (α2m vs normal) Day 3 [1]: 0.5 | Fold Change (α2m vs normal) Day 7 [1]: 0.3 | Fold Change (α2m vs normal) Day 3 [2]: 0.4 | Fold Change (α2m vs normal) Day 7 [2]: 0.2 | Fold Change (α2m vs normal) Day 14 [2]: 2.6 | Fold Change (α2m vs normal) Day 3 (gene CD74 antigen (1367679_at)): 10.1 | Fold Change (α2m vs normal) Day 7 (gene CD74 antigen (1367679_at)): 6.5 | Fold Change (α2m vs normal) Day 3 [3]: 0.5 | Fold Change (α2m vs normal) Day 7 [3]: 0.3 | Fold Change (α2m vs normal) Day 14 [3]: 2.9 | Fold Change (α2m vs normal) Day 3 [4]: 0.5 | Fold Change (α2m vs normal) Day 7 [4]: 0.4 | Fold Change (α2m vs normal) Day 3 [5]: 0.4 | Fold Change (α2m vs normal) Day 7 [5]: 0.1 | Fold Change (α2m vs normal) Day 3 [6]: 0.4 | Fold Change (α2m vs normal) Day 7 [6]: 4.3 | Fold Change (α2m vs normal) Day 14 [6]: 2.4 | Fold Change (α2m vs normal) Day 3 [7]: 0.5 | Fold Change (α2m vs normal) Day 7 [7]: 0.2 | Fold Change (α2m vs normal) Day 14 [7]: 2.3 | Fold Change (α2m vs normal) Day 3 [8]: 9.4 | Fold Change (α2m vs normal) Day 7 [8]: 2.1 | Fold Change (α2m vs normal) Day 3 [9]: 0.5 | Fold Change (α2m vs normal) Day 7 [9]: 0.5 | Fold Change (α2m vs normal) Day 3 (gene LOC361776 (1373010_at)): 20.1 | Fold Change (α2m vs normal) Day 7 (gene LOC361776 (1373010_at)): 0.5 | Fold Change (α2m vs normal) Day 3 [10]: 8.3 | Fold Change (α2m vs normal) Day 7 [10]: 4.5 | Fold Change (α2m vs normal) Day 3 [11]: 6.8 | Fold Change (α2m vs normal) Day 7 [11]: 5.2 | Fold Change (α2m vs normal) Day 3 [12]: 16.1 | Fold Change (α2m vs normal) Day 7 [12]: 11.3 | Fold Change (α2m vs normal) Day 3 [13]: 4.9 | Fold Change (α2m vs normal) Day 7 [13]: 3.5 | Fold Change (α2m vs normal) Day 3 [14]: 2.0 | Fold Change (α2m vs normal) Day 7 [14]: 4.5 | Fold Change (α2m vs normal) Day 3 [15]: 0.5 | Fold Change (α2m vs normal) Day 7 [15]: 0.3 | Fold Change (α2m vs normal) Day 14 [15]: 2.4 | Fold Change (α2m vs normal) Day 3 [16]: 0.5 | Fold Change (α2m vs normal) Day 7 [16]: 0.4 | Fold Change (α2m vs normal) Day 14 [16]: 2.0 | Fold Change (α2m vs normal) Day 3 [17]: 0.4 | Fold Change (α2m vs normal) Day 7 [17]: 0.3 | Fold Change (α2m vs normal) Day 3 [18]: 0.4 | Fold Change (α2m vs normal) Day 7 [18]: 0.2 | Fold Change (α2m vs normal) Day 3 [19]: 0.3 | Fold Change (α2m vs normal) Day 7 [19]: 0.4 | Fold Change (α2m vs normal) Day 3 [20]: 0.4 | Fold Change (α2m vs normal) Day 7 [20]: 0.3 | Fold Change (α2m vs normal) Day 14 [20]: 5.4 | Fold Change (α2m vs normal) Day 3 [21]: 0.3 | Fold Change (α2m vs normal) Day 7 [21]: 4.2 | Fold Change (α2m vs normal) Day 3 [22]: 0.4 | Fold Change (α2m vs normal) Day 7 [22]: 0.2 | Fold Change (α2m vs normal) Day 14 [22]: 2.7 | Fold Change (α2m vs normal) Day 3 [23]: 0.4 | Fold Change (α2m vs normal) Day 7 [23]: 0.3 | Fold Change (α2m vs normal) Day 3 [24]: 0.5 | Fold Change (α2m vs normal) Day 7 [24]: 4.2 | Fold Change (α2m vs normal) Day 14 [24]: 2.0 | Fold Change (α2m vs normal) Day 3 [25]: 0.5 | Fold Change (α2m vs normal) Day 7 [25]: 0.3 | Fold Change (α2m vs normal) Day 3 [26]: 0.5 | Fold Change (α2m vs normal) Day 7 [26]: 0.2 | Fold Change (α2m vs normal) Day 14 [26]: 2.0 | Fold Change (α2m vs normal) Day 3 [27]: 2.4 | Fold Change (α2m vs normal) Day 7 [27]: 16.6 | Fold Change (α2m vs normal) Day 3 [28]: 0.4 | Fold Change (α2m vs normal) Day 7 [28]: 0.3 | Fold Change (α2m vs normal) Day 3 [29]: 0.4 | Fold Change (α2m vs normal) Day 7 [29]: 4.1 | Fold Change (α2m vs normal) Day 3 [30]: 2.4 | Fold Change (α2m vs normal) Day 7 [30]: 17.0 | Fold Change (α2m vs normal) Day 3 [31]: 2.7 | Fold Change (α2m vs normal) Day 7 [31]: 2.0 | Fold Change (α2m vs normal) Day 3 [32]: 0.4 | Fold Change (α2m vs normal) Day 7 [32]: 2.4 | Fold Change (α2m vs normal) Day 3 [33]: 0.5 | Fold Change (α2m vs normal) Day 7 [33]: 0.2 | Fold Change (α2m vs normal) Day 3 (gene cadherin 1 (1386947_at)): 0.4 | Fold Change (α2m vs normal) Day 7 (gene cadherin 1 (1386947_at)): 9.6 | Fold Change (α2m vs normal) Day 14 (gene cadherin 1 (1386947_at)): 2.4 | Fold Change (α2m vs normal) Day 3 [34]: 0.4 | Fold Change (α2m vs normal) Day 7 [34]: 0.1 | Fold Change (α2m vs normal) Day 14 [34]: 2.2 | Fold Change (α2m vs normal) Day 3 [35]: 6.0 | Fold Change (α2m vs normal) Day 7 [35]: 3.6 | Fold Change (α2m vs normal) Day 3 [36]: 8.4 | Fold Change (α2m vs normal) Day 7 [36]: 2.1 | Fold Change (α2m vs normal) Day 3 [37]: 2.2 | Fold Change (α2m vs normal) Day 7 [37]: 2.3 | Fold Change (α2m vs normal) Day 3 (gene complement factor B (1389470_at)): 3.9
